Experiments:
[1] = test system: D. citri stylet sheaths (ACP SSs); assay: Degradation of preformed, solidified stylet sheaths by enzymes (MFC membrane or slide incubation); parameters: species or system Diaphorina citri; key to Sheath Degradation: −: No effect apparent; +/−: inconclusive; +: apparent slight effect; ++: increased apparent effect; +++: high effect; ++++: very high effect; +++++: complete degradation of sheaths or inhibition of sheath synthesis; conditions: for Sheath Degradation: enzyme concentration, pH and temperature per Table 4 (cellulase 1:25, pH 6.0, 60° C.); for Effect on preformed D. citri stylet sheaths: cellulase 1:25, pH 6.0, 60° C., 72 hours, Flavourzyme about 30 minutes, proteinase K 55° C. overnight
Method: In order to test cellulase's effect on preformed ACP SSs, formed, solidified stylet sheaths were harvested directly from the surface of an MFC membrane (in these experiments either plastic wrap or parafilm was used) as described herein and in Morgan et al. 2013, supra. Approximately 100 psyllids were placed into an MFC for about 24 hours. The MFCs consisted of D. citri caged individually and/or in groups within 100 mm×15 mm plastic Petri dishes. A single kitchen plastic wrap layer was stretched across the top of each Petri dish to seal the Petri dish from insect escape and to provide a stylet penetrable surface for insect probing.
Several MFCs (the Petri dishes covered with kitchen plastic wrap or parafilm and containing D. citri) were placed into clear Pyrex® baking dishes with the membrane (kitchen plastic wrap or parafilm) side up, and the Pyrex® baking dish is covered with a single layer of clear kitchen plastic wrap to prevent external contaminant interactions with the membrane surface during incubation. MFCs were incubated at a temperature of about 25° C., relative humidity of about 75%, and a light:dark cycle of about 14:1. Collection of partial stylet sheaths, shaft/branching portions without the flange, was performed using deionized water applied directly to the sheath surface to wash the surface of the MFC, and then the application of approximately 100 μl of an approximately 50 mM sodium phosphate buffer at a pH of approximately 6.0 for direct harvest of partial sheaths from the membrane surface using a bent glass rod to scour the plastic wrap surface to dislodge the stylet sheaths. The sodium phosphate buffer containing dislodged sheath shafts was removed using a pipette and placed in a microcentrifuge tube (1.5 ml tube), and cellulase (Sigma #C2605, Sigma Aldrich, St. Louis, Mo.) was added by ratio at approximately 1 part cellulase to 25 parts sodium phosphate buffer (approximately 1:25 ratio). Approximately 15 μl was then transferred to a pre-cleaned glass slide (Fisher, #12-550-19, Thermo Fisher Scientific, Inc., Waltham Mass.), covered with a premium cover slip, and edges sealed using clear nail polish CG, 3INI NL #Q004 SHN ON (CoverGirl, Hunt Valley, Md.) to keep the buffer from evaporating during incubation. This slide was then placed in an approximately 60° C. incubator of about 72 hours and observed at about 24 hour intervals.
FIGS. 3A, 3B, and 3C and FIGS. 3D, 3E, and 3F are light micrograph pictures of repeated experiments representing separate treatment of two salivary sheaths. FIG. 3A and FIG. 3D are separate salivary sheaths prior to the addition of cellulase. FIG. 3B and FIG. 3E are the same sheaths, respectively, after 72 hours incubation with cellulase. FIG. 3C and FIG. 3F are the same sheaths, respectively, when gentle pressure was applied to the coverslip over the sheaths that had been incubated with cellulase for 72 hours. […] Because of the observed result with cellulase, sheath degradation experiments as described above for cellulase were performed using a number of polysaccharide-degrading enzymes and proteases. […] Both carbohydrate-degrading enzymes and proteases were effective at degrading the sheaths.
While not wishing to be bound to any particular hypothesis, based on the results of Examples 1, 2, and 3, it is hypothesized that the structure of the ACP SSs could include protein cross-links that are catalyzed by an enzyme with an oxidative role, an enzyme at least somewhat similar to a lysyl oxidase. To determine if a protein is associated with the identified glucan, proteases were tested in experiments similar to Examples 1 and 2 above. The following proteases were added individually in separate experiments (described infra) to membranes on which D. citri adults were previously allowed to first form sheaths in the absence of proteases: Flavourzyme® (a protease cocktail), carboxypeptidase W, chymopapain, bromelain, papain, ficin, licheninase, laminarinase, and β-(1→3)-D-glucanase. […]

[2] = test system: D. citri; assay: Liquid ACP diet sandwich feeding assay (MFC): inhibition of de novo stylet sheath formation; format: in vivo, Diaphorina citri; parameters: key: −: No effect apparent; +/−: inconclusive; +: apparent slight effect; ++: increased apparent effect; +++: high effect; ++++: very high effect; +++++: complete degradation of sheaths or inhibition of sheath synthesis; conditions: enzyme in liquid ACP diet, about 24 h, 25° C., enzyme amounts and pH per Table 5 (cellulase approx 1 unit/μl)
Method: (§1) The next step was to determine if addition of cellulase to the diet of D. citri would interfere with stylet sheath formation. A D. citri diet is prepared as described by Hall, David et al., “Research toward an artificial diet for adult Asian citrus psyllid,” Annals of the Entomological Society of America 103.4:611-617 (2010). Approximately 25 D. citri were collected into polystyrene Cellstar 35 mm×10 mm dishes (Griener Bio-One, Monroe, N.C.) that were then sealed using a single layer of Parafilm® M (Pechiney Plastic Packaging Company, Chicago, Ill.). Approximately 99 μl of liquid ACP diet (e.g., diet lacking the solidifying agar component, see Hall, et. al., 2010, supra) was mixed with approximately 1 μl of cellulase (Sigma Aldrich, St. Louis, Mo.) and mixed. […]
(§2) Because many biomolecule polymerizing enzymes require divalent cations as cofactors, the effect of ethylenediaminetetraacetic acid (EDTA), a chelator of divalent cations, on ACP SS formation was tested by adding EDTA to the previously described liquid ACP diet (see Hall et al., 2010, supra). […] Uncommon bands between the liquid ACP diet containing EDTA and liquid ACP diet without EDTA (negative control) lanes were cut out and analyzed by Orbitrap (Thermo Scientific, Waltham, Mass.) protein analysis, according to manufacturer's protocol. […]

[3] = test system: D. citri; assay: as above; format: in vivo, Diaphorina citri; conditions: about 24 h; cellulase approx 1 unit/μl; BAPN 100 mM; EDTA approx 2 mM; proteases per Table 5
Method: as §1, §2

| Molecule | Sheath Degradation ([1]; D. citri preformed sheaths) | Effect on preformed D. citri stylet sheaths [1] | Inhibition of Sheath Formation [2] | Effect on D. citri stylet sheath formation in liquid ACP diet [3] | Sheath Degradation, remark in words ([1]; D. citri preformed sheaths) |
| --- | --- | --- | --- | --- | --- |
| Proteinase K from Tritirachium album: Broad protease specificity; Fischer #BP1700-100 (protein, UniProt P06873 106-384, looked up) Proteinase K: AAQTNAPWGLARISSTSPGTSTYYYDESAGQGSCVYVIDTGIEASHPEFEGRAQMVKTYYYSSRDGNGHGTHCAGTVGSRTYGVAKKTQLFGVKVLDDNGSGQYSTIIAGMDFVASDKNNRNCPKGVVASLSLGGGYSSSVNSAAARLQSSGVMVAVAAGNNNADARNYSPASEPSVCTVGASDRYDRRSSFSNYGSVLDIFGPGTSILSTWIGGSTRSISGTSMATPHVAGLAAYLMTLGKTTAASACRYIADTANKGDLSNIPFGTVNLLAYNNYQA | +++++ | completely dissolves |  |  |  |
| Papain from papaya latex: Cysteine peptidase; Sigma #P5306 (protein, UniProt P00784 134-345, looked up) Papain: IPEYVDWRQKGAVTPVKNQGSCGSCWAFSAVVTIEGIIKIRTGNLNEYSEQELLDCDRRSYGCNGGYPWSALQLVAQYGIHYRNTYPYEGVQRYCRSREKGPYAAKTDGVRQVQPYNEGALLYSIANQPVSVVLEAAGKDFQLYRGGIFVGPCGNKVDHAVAAVGYGPNYILIKNSWGTGWGENGYIRIKRGTGNSYGVCGLYTSSFYPVKN | ++ |  | ++++ | capable of inhibiting the formation of ACP SSs |  |
| Trypsin from bovine pancreas: Serine peptidase; Sigma #T8658 (protein, UniProt P00760 24-246, looked up) Serine protease 1: IVGGYTCGANTVPYQVSLNSGYHFCGGSLINSQWVVSAAHCYKSGIQVRLGEDNINVVEGNEQFISASKSIVHPSYNSNTLNNDIMLIKLKSAASLNSRVASISLPTSCASAGTQCLISGWGNTKSSGTSYPDVLKCLKAPILSDSSCKSAYPGQITSNMFCAGYLEGGKDSCQGDSGGPVVCSGKLQGIVSWGSGCAQKNKPGVYTKVCNYVSWIKQTIASN | − |  | − | did not appear to have an inhibitory effect |  |
| Amyloglucosidase from Aspergillus niger: Hydrolyses α-D-(1-4), α-D-(1-6) and α-D-(1-3) glucosidic bonds of oligosaccharides; Sigma #A7420 (protein, UniProt P69328 25-640, looked up) Glucoamylase: ATLDSWLSNEATVARTAILNNIGADGAWVSGADSGIVVASPSTDNPDYFYTWTRDSGLVLKTLVDLFRNGDTSLLSTIENYISAQAIVQGISNPSGDLSSGAGLGEPKFNVDETAYTGSWGRPQRDGPALRATAMIGFGQWLLDNGYTSTATDIVWPLVRNDLSYVAQYWNQTGYDLWEEVNGSSFFTIAVQHRALVEGSAFATAVGSSCSWCDSQAPEILCYLQSFWTGSFILANFDSSRSGKDANTLLGSIHTFDPEAACDDSTFQPCSPRALANHKEVVDSFRSIYTLNDGLSDSEAVAVGRYPEDTYYNGNPWFLCTLAAAEQLYDALYQWDKQGSLEVTDVSLDFFKALYSDAATGTYSSSSSTYSSIVDAVKTFADGFVSIVETHAASNGSMSEQYDKSDGEQLSARDLTWSYAALLTANNRRNSVVPASWGETSASSVPGTCAATSAIGTYSSVTVTSWPSIVATGGTTTTATPTGSGSVTSTSKTTATASKTSTSTSSTSCTTPTAVAVTFDLTATTTYGENIYLVGSISQLGDWETSDGIALSADKYTSSDPLWYVTVTLPAGESFEYKFIRIESDDSVEWESDPNREYTVPQACGTSTATVTDTWR | ++ | adversely impact stylet sheath integrity |  |  | Sheaths swell |
